Measured values taken from paper doi:10.1101/2022.08.03.502629.

Molecular target: antithrombin (UniProt P01008)
Assay: SPR

Chain of UniProt P01008 (P01008 33-464): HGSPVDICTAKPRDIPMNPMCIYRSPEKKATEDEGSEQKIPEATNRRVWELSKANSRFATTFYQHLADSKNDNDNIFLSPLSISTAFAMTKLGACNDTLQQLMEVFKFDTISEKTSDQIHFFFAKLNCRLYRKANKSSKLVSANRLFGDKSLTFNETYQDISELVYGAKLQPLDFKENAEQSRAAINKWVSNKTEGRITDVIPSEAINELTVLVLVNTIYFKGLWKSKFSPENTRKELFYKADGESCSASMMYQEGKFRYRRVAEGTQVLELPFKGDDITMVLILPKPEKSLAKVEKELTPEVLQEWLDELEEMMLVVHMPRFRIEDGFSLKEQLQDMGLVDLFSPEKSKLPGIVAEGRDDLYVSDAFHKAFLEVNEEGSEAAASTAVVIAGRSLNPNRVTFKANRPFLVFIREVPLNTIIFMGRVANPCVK

| Kd [nM] | Substance |
| --- | --- |
| 460 | K96Y S195A Gla-domainless factor Xa (domain or fragment) |
| 416 | S195A Gla-domainless factor Xa (domain or fragment) |
